# Source: US9303076B2, “Cell-penetrating peptides and uses thereof” (Hoffmann-La Roche Inc., priority 2010, dated 2016)
# Columns and labels:
# recombinant BCL2 = target: T1, recombinant BCL2 (Homo sapiens, UniProt P10415); experiment: BCL2 binding to bead-immobilized peptides; conditions: iodoacetyl beads, elution buffer pH 2.8, protein stain
# T1 construct: purchased Calbiochem/Merck, Darmstadt, Germany
# Experimental: In order to determine whether the BCL2 binding properties of the Nur77-derived peptide are maintained in the NurNRTN fusion peptide, the respective NurNRTN and NRTN peptides were coupled to iodoacetyl beads (Pierce Biotechnology, Inc., Rockford, Ill., USA). The beads were incubated with recombinant BCL2 (Calbiochem/Merck, Darmstadt, Germany) and washed with PBS and 0.5 M NaCl, 0.025 NaN3, 0.05% Tween20 to remove unbound protein. Specific binding of BCL2 to the immobilized NurNTRN fusion peptide was determined by eluting bound […] from the beads with elution buffer (pH 2.8), transfer of the eluted fraction to nitrocellulose (Invitrogen Corporation, Carlsbad, Calif., USA), and protein detection by means of the MemCode Reversible Protein Stain Kit (Pierce Biotechnology, Inc., Rockford, Ill., USA).
# [1] = test system: MCF-7 human breast cancer cells; experiment: cell viability/apoptosis after 24 h exposure to pro-apoptotic peptides and CPP fusions; assay type: cell-based; conditions: MCF-7 cells, various concentrations
# Experimental: (§1) MCF-7 human breast cancer cells were incubated for 24 h in the presence of various concentrations of NRTN (squares), Nur (circles), and NurNRTN (triangles) peptides. The respective amino acid sequences are given in the bottom panel. The experimental approach for assessing cell viability (and thus induction of apoptosis) was the same as in FIG. 3.
# as §1, with “4E-BP1 (circles), TAT4E-BP1” for “NRTN”, “(squares),” for “(squares), Nur (circles),”, “NRTN4E-BP1” for “NurNRTN”, “peptides (top panel). […]” for “peptides.”
# Luminescence was analyzed in an InfiniteF200 luminescence reader.
# Then, the cells were treated with a luminogenic peptide substrate in order to measure dead-cell protease activity, which is released from cells that have lost membrane integrity. […] The luminescence of this assay therefore represents dead cells. The 96 well plates were then analyzed in an InfiniteF200 luminescence reader.
# Despite its proven ability to convert BCL-2 into a pro-apoptotic molecule, addition of the latter peptide (i.e. “Nor/Nur”; SEQ ID NO: 72) to cancer cells, even in high concentrations, is not sufficient to induce apoptosis, as the cellular target protein is located in the cytoplasm, but the peptide per se cannot effectively penetrate through the cell membrane to reach the target. In brief, MCF-7 breast cancer cells were incubated in the presence of this peptide for 24 h.
# (§2) Subsequently, it was evaluated whether the NurNRTN fusion peptide is capable of penetrating cellular membranes and thereby induces pro-apoptotic activity within cells. MCF-7 human breast cancer cells were used as a model. The experimental approach was as described above (cf. Example 1). […] This effect was dose dependent: cytotoxicity increased with increasing concentrations of peptide.
# as §2, with “NRTN4E-BP1” for “NurNRTN”
# T1 sequence (P10415 whole entry): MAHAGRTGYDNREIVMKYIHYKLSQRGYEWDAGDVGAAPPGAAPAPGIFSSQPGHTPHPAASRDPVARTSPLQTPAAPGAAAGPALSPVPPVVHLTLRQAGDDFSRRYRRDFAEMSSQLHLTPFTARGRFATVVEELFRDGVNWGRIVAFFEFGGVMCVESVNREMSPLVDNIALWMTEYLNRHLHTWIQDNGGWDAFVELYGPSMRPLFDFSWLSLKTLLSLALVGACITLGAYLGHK
sequence,measurement,setting,value
FSRSLHSLLYDLGLRRLRQRRRLRRERVRA (NurNRTN peptide sequence),BCL2 in eluates from peptide-coated beads,recombinant BCL2,BCL2 can be detected in eluates
same,cell viability / induction of apoptosis,[1],remarked cytotoxicity
